Reference: patent US20170137511A1 (CALYPSO BIOTECH, published 2017)
Blank lines part the entries; values can stand above or below the binder they belong to.

Key:
[1] = target: T1, recombinant human IL-15 (R&D systems cat. no. 247-IL) (human, UniProt P40933 49-162); experiment: cell-based or functional assay
[2] = target: T2, recombinant Macaque Monkey IL-15 (MyBiosource cat. no. MBS948894) (Rhesus macaque / Cynomolgus monkey, UniProt P40221 49-162 (Chlorocebus aethiops entry)); experiment: cell-based or functional assay
T2 sequence (P40221 49-162): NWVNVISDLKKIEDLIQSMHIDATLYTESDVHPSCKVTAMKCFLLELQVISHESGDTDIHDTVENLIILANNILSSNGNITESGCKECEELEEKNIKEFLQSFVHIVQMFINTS

[3] = target: T3, recombinant mouse IL-15 (R&D Systems cat. no. 447-ML) (mouse, UniProt P48346 49-162); experiment: ELISA, plate-bound recombinant mouse IL-15 (100 ng/well), HRP goat anti-human IgG, absorbance at 450 nm
T3 sequence: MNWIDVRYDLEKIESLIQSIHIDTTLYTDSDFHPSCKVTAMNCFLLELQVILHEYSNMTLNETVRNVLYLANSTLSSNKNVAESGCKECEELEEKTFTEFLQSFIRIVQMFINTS
Protocol: (§1) Maxisorp plates were coated with recombinant mouse IL-15 (R&D Systems cat. no. 447-ML) or rat IL-15 (Sigma cat. no. SRP4172) at 100 ng/well in carbonate coating buffer for 2 hours at 37° C. Tested IL-15 recombinant proteins have a sequence identical to that provided in SEQ ID NO: 2 (mouse IL-15) and SEQ ID NO: 3 (rat IL-15) but with an additional methionine at the N-terminal position as usually done for expressing recombinant proteins in E. Coli.
(§2) The plate was then blocked with 2% normal goat serum for 30 min at 37° C. and washed 6 times with PBS-Tween (0.05% Tween-20 in PBS, v/v). Test antibodies were added to the plate in triplicate at various dilutions in PBS-Tween and the plate was incubated with gentle rocking at room temperature for 2 hours. As positive controls, rabbit-anti-mouse IL-15 (Acris cat. no. AP01124PU-S) or rabbit anti-rat IL-15 (Biovision cat. no. 5172) antibodies were tested at the same concentrations. The plate was then washed 6 times with PBS-Tween and an appropriate dilution of HRP-conjugated goat anti-human IgG antibody (Millipore cat. no. AP309P) for humanized antibodies, or goat-anti-rabbit IgG antibody (Sigma cat. no. A 4416) for the positive controls was added and the plate was left rocking at room temperature for 1 hour. The plate was then washed 6 times with PBS-Tween and incubated with TMB substrate. The reaction was stopped by the addition of 1M H₂SO₄ and read at 450 nm. Dose response curves of absorbance versus concentration were plotted using the Graphpad Prism software.

[4] = target: T4, recombinant rat IL-15 (Sigma cat. no. SRP4172) (rat, UniProt P97604 49-162); experiment: ELISA, plate-bound recombinant rat IL-15 (100 ng/well), HRP goat anti-human IgG, absorbance at 450 nm
T4 sequence: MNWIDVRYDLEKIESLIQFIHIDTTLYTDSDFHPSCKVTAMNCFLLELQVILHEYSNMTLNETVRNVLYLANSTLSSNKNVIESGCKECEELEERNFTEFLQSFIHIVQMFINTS
Protocol: as §1, §2

[5] = target: T2, recombinant Macaque Monkey IL-15 …; experiment: ELISA, plate-bound Macaque Monkey IL-15; printed as BC50 (half-maximal binding concentration)
Protocol: (§3) Maxisorp plates were coated with recombinant human IL-15 (Prospec cat no. CYT230) or Rhesus macaque IL-15 (MyBiosource cat. no. MBS948894) at 100 ng/well in carbonate coating buffer for 2 hours at 37° C. Since published sequences of Rhesus macaque and Cynomolgus monkey IL-15 are identical, such recombinant IL-15 protein was referred to as Macaque Monkey IL-15. Tested human IL-15 recombinant protein has a sequence identical to that provided in SEQ ID NO: 1 but with an additional methionine at the N-terminal position as usually done for expressing recombinant proteins in E. Coli. Tested recombinant Macaque Monkey IL-15 was produced in yeast and has a sequence identical to that provided in SEQ ID NO: 4 but with an additional N-terminal His tag.
(§4) The plate was then blocked with 2% normal goat serum for 30 min at 37° C. and washed 6 times with PBS-Tween (0.05% Tween-20 in PBS, v/v). Test antibodies were added to the plate in triplicate at various dilutions in PBS-Tween and the plate was incubated with gentle rocking at room temperature for 2 hours. The plate was then washed 6 times with PBS-Tween and an appropriate dilution of goat anti-human IgG antibody (Millipore cat. no. AP309P) conjugated to horseradish peroxidase (HRP) was added to the plate and left rocking at room temperature for 1 hour. The plate was then washed 6 times with PBS-Tween and incubated with TMB substrate. The reaction was stopped by the addition of 1M H₂SO₄ and read at 450 nm. Dose response curves of absorbance versus concentration were plotted and analyzed to determine half-maximal binding concentrations (BC₅₀) using the Graphpad Prism software. BC₅₀ values expressed as molarity were extrapolated from concentration in ng/ml using a 150 kDa molecular weight value for all antibodies.

[6] = target: T5, recombinant human IL-15 (Prospec cat no. CYT230) (human, UniProt P40933 49-162); experiment: ELISA, plate-bound human IL-15; printed as BC50 (half-maximal binding concentration)
T5 sequence (P40933 other isoform, or with tags, fused parts or gaps): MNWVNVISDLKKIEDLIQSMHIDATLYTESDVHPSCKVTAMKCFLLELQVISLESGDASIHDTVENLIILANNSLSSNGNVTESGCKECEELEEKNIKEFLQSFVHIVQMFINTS
Protocol: as §3, §4

[7] = target: T1, recombinant human IL-15 (R&D systems …); experiment: cell-based or functional assay; remark: listed apart in the source
[8] = target: T5, recombinant human IL-15 (Prospec cat …); experiment: SPR (Biacore 3000), human IL-15 amine-coupled to the chip, antibody injected, 1:1 Langmuir fit
Protocol: Human IL-15 (Prospec cat no. CYT230) was immobilized onto a CMS chip (GE Healthcare) using standard amine coupling, and antibodies injected at various concentrations in 120 μl phosphate buffer saline with a flow rate of […]. Binding kinetics were analyzed on a Biacore 3000 apparatus (GE Healthcare) with a 300 seconds dissociation period. Reference signal and 0 nM antibody concentration signal were substracted and data fitted using a 1:1 (Langmuir) binding model.

[9] = target: T6, human IL-15 (preparation not stated) (human, UniProt P40933 49-162, limits assumed); experiment: ELISA
T6 construct: also called recombinant IL-15; recombinant human IL-15
T6 sequence (P40933 49-162 limits assumed): as the sequence (P40221 49-162) above, with H52L, T57A, D58S, I73S, I80V counted along it

T1 sequence (P40933 49-162 limits assumed): as the sequence (P40221 49-162) above, with H52L, T57A, D58S, I73S, I80V counted along it

B2: cVH1:cVK1 (antibody, human IgG1, kappa, V domains shown)
VH: EVRLMASGGGLVKPGGSLKLSCAASEFTFSNYAMSWVRQTPEKRLEWVATISRGGDYTYYPDSVKGRFTISRDNAKNTLYLQMSSLRSEDTALYYCARRVSMITGGWAMDYWGQGTSVTVSS
VL: DVLMTQTPLSLPVSLGDQASISCRSSQSIVDITGNTYLEWYLQKPGQSPKLLIYKVFNRFSGVPDRFSGSGSGTDFTLKISRVEAEDLGLYYCFQDSFVPYTFGGGTKLEIKR
notes: Mouse B-E29 variable regions on human IgG1 (G1m3) / kappa (Km3); also called chimeric B-E29
binding result [9]: binds

B3: cVH1:hVK1 (antibody, human IgG1, kappa, V domains shown)
VH: EVRLMASGGGLVKPGGSLKLSCAASEFTFSNYAMSWVRQTPEKRLEWVATISRGGDYTYYPDSVKGRFTISRDNAKNTLYLQMSSLRSEDTALYYCARRVSMITGGWAMDYWGQGTSVTVSS
VL: DVVMTQSPLSLPVTLGQPASISCRSSQSIVDITGNTYLEWYQQRPGQSPRLLIYKVFNRFSGVPDRFSGSGSGTDFTLKISRVEAEDVGVYYCFQDSFVPYTFGQGTKLEIKR
notes: Human IgG1 (G1m3) / kappa (Km3)
binding result [9]: binds

Second part, led by results:

IC50 in Kit 225 cells (nM), Human IL-15 [1]: 29.3 nM
IC50 in M-07e cells (nM), Human IL-15 [1]: 19.1 nM
IC50 in Kit 225 cells (nM), Macaque Monkey IL-15 [2]: 26.7 nM
IC50 in M-07e cells (nM), Macaque Monkey IL-15 [2]: 10.4 nM
EC50 [5]: 0.113 nM
EC50 [6]: 0.647 nM
IC50 in M07e cells for IL-15 trans presentation [7]: 0.65 nM
Kd [8]: 0.329 nM
koff [8]: 0.000574 s⁻¹
kon [8]: 1.75e+06 M⁻¹ s⁻¹
B1: huB-E29-24 (antibody, human IgG1, kappa, V domains shown)
VH: EVQLVESGGGLVQPGGSLRLSCAASEFTFSNYAMSWVRQAPGKGLEWVATISRGGDYTYYPDSVKGRFTISRDNSKNTLYLQMNSLRAEDTAVYYCARRVSMITGGYAMDYWGQGTLVTVSS
VL: DVVMTQSPLSLPVTLGQPASISCRSSQSIVDITGNTYLEWYQQRPGQSPRLLIYKVFNRFSGVPDRFSGSGSGTDFTLKISRVEAEDVGVYYCFQDSFVPYTFGQGTKLEIKR
notes: Humanized B-E29 variant; human IgG1 (G1m3) / kappa (Km3), produced in CHO cells; also called huVH18/huVL1
binding result [3]: no binding (tested: log 3.7 (about 5000 ng/mL))
binding result [4]: no binding (tested: log 3.7 (about 5000 ng/mL))

binding result [9]: binds
B4: hVH1:cVK1 (antibody, human IgG1, kappa, V domains shown)
VH: EVRLMASGGGLVQPGGSLRLSCAASEFTFSNYAMSWVRQAPGKGLEWVATISRGGDYTYYPDSVKGRFTISRDNSKNTLYLQMNSLRAEDTAVYYCARRVSMITGGWAMDYWGQGTLVTVSS
VL: DVLMTQTPLSLPVSLGDQASISCRSSQSIVDITGNTYLEWYLQKPGQSPKLLIYKVFNRFSGVPDRFSGSGSGTDFTLKISRVEAEDLGLYYCFQDSFVPYTFGGGTKLEIKR
notes: as for B3
